Publication PMC9922296, “Mechanistic insights into RNA surveillance by the canonical poly(A) polymerase Pla1 of the MTREC complex” (Nature Communications, 2023)
Where “and” joins values, the source holds several entries; their conditions need not be identical. Equal values may be shown once. No end group written: not given here.

Legend:
[1] = biological target: C-terminal RRM domain of Pla1 (Pla1RRM, residues 352-566), purified (S. pombe) (UniProt Q10295); experiment: ITC; MicroCal PEAQ-ITC, 25 °C, 20 mM HEPES pH 7.5, 150 mM NaCl, 2 mM BME; 40-50 µM protein in the cell, 400-500 µM ligand in the syringe; one-binding site model
[2] = biological target: T1, Red1 residues 288-345 with Val313 mutated to arginine (S. pombe, UniProt Q9UTR8 288-345, Val313 to an arginine residue); experiment: ITC
T1 sequence: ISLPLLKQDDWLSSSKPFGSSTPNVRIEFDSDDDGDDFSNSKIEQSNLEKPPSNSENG

[3] = biological target: T2, Pla1FL (full-length Pla1, residues 1-566) (S. pombe, UniProt Q10295 1-566); experiment: BLI; biotinylated Red1 288-345 or Iss1 30-76 immobilised on streptavidin biosensors, 2-fold serial dilution of Pla1FL as analyte; 25 °C; 20 mM HEPES pH 7.5, 150 mM NaCl, 2 mM BME, 0.01% Tween-20; global 1:1 fit; settings: both partners purified
T2 construct: Pla1, canonical poly(A) polymerase, S. pombe, residues 1-566; the His6 tag is non-cleavable; source: E. coli BL21 (DE3) Rosetta2, purified (His-Trap, Resource Q, Superdex 200); not shown: His6, N-terminal, kept
T2 sequence (looked up): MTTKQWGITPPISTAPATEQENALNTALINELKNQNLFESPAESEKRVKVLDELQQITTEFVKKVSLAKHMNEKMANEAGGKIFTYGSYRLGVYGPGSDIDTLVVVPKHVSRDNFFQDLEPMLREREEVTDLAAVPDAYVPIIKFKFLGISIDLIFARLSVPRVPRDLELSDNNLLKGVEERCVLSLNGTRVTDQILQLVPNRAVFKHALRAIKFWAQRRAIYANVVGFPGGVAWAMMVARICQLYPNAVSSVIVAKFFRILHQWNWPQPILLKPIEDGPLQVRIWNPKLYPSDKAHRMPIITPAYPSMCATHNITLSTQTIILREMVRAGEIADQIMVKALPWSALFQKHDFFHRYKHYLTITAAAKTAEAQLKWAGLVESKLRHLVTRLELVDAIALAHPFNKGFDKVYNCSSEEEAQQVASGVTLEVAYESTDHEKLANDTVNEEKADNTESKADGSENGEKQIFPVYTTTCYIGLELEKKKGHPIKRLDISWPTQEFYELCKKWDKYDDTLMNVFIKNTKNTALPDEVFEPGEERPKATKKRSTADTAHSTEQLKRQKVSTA

[4] = biological target: T3, C-terminal RRM domain of Pla1 (Pla1RRM, residues 352-566), purified (S. pombe, UniProt Q10295 352-566); experiment: ITC; MicroCal PEAQ-ITC, 25 °C, 20 mM HEPES pH 7.5, 150 mM NaCl, 2 mM BME; 40-50 µM protein in the cell, 400-500 µM ligand in the syringe; one-binding site model; settings: both partners purified
T3 construct: canonical poly(A) polymerase Pla1, S. pombe, C-terminal RRM domain, residues 352-566; also called Pla1 CTD; source: E. coli BL21 (DE3) Rosetta2, purified (His-Trap, TEV cleavage, Resource Q, Superdex 200); not shown: His6, N-terminal, cleaved
T3 sequence (looked up): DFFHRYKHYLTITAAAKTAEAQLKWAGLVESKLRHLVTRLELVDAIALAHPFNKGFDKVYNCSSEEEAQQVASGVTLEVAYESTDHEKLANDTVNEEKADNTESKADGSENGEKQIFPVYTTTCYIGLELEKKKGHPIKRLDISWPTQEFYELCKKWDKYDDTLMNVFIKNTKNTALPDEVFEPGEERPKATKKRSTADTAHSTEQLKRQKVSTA

[5] = biological target: T4, Full-length Pla1 (Pla1FL, residues 1-566) with non-cleavable N-terminal His6, purified (S. pombe, UniProt Q10295 1-566); experiment: BLI; Octet RED96e, 25 °C, 20 mM HEPES pH 7.5, 150 mM NaCl, 2 mM BME, 0.01% Tween-20; biotinylated Red1_(288-345) or Iss1_(30-76) on streptavidin biosensors, 2-fold serial dilution of Pla1FL; global 1:1 fit; apparent; settings: both partners purified
T4 construct: canonical poly(A) polymerase Pla1, S. pombe, full length, residues 1-566; source: E. coli BL21 (DE3) Rosetta2, purified (His-Trap, Resource Q, Superdex 200); not shown: His6, N-terminal, kept
T4 sequence (looked up): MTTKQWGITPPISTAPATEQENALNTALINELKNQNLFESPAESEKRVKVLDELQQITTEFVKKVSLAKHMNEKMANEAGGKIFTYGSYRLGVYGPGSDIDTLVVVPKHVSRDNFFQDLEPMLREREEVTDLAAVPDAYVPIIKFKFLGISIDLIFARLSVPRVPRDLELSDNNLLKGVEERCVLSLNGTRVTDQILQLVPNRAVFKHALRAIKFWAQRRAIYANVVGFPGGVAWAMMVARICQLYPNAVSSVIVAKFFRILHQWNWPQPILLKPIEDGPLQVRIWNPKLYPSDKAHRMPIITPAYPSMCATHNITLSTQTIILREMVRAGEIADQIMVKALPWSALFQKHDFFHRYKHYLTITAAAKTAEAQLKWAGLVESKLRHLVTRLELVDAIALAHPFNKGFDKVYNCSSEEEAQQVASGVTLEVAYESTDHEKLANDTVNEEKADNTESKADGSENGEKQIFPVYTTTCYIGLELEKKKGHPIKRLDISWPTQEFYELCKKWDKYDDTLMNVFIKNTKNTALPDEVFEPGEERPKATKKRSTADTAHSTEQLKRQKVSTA

[6] = biological target: T5, Pla1RRM (C-terminal RRM domain of Pla1, residues 352-566) (S. pombe, UniProt Q10295 352-566); experiment: ITC; Red1 or Iss1 construct in the syringe (400-500 µM) titrated into Pla1RRM (wild type or mutant) in the cell (40-50 µM); 25 °C; 20 mM HEPES pH 7.5, 150 mM NaCl, 2 mM BME; one-binding site model; each independent measurement listed; settings: both partners purified
T5 construct: Pla1, canonical poly(A) polymerase, S. pombe, C-terminal RRM domain, residues 352-566; also called Pla1 RRM domain; Pla1 CTD; source: E. coli BL21 (DE3) Rosetta2, purified (His-Trap, TEV cleavage, Resource Q, Superdex 200); not shown: His6, N-terminal, cleaved
T5 sequence (looked up): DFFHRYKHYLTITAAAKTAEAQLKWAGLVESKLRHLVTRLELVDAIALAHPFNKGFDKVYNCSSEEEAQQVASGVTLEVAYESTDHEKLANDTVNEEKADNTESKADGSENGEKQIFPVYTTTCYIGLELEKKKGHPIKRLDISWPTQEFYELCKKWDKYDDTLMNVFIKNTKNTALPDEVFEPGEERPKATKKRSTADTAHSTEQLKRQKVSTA

[7] = biological target: T5, Pla1RRM (C-terminal RRM domain of Pla1, …); experiment: as above; settings: both partners purified; remark: listed apart in the source
[8] = biological target: Biotinylated Iss1 residues 30-76 (S. pombe); experiment: BLI; Octet RED96e, 25 °C, 20 mM HEPES pH 7.5, 150 mM NaCl, 2 mM BME, 0.01% Tween-20; biotinylated Red1_(288-345) or Iss1_(30-76) on streptavidin biosensors, 2-fold serial dilution of Pla1FL; global 1:1 fit; apparent

Q: For “Iss1 residues 30-76, purified (domain or fragment)”, which Kd [1] is on record?
A: 2500 nM

B1: C-terminal RRM domain of Pla1 (Pla1RRM, residues 352-566), purified (domain or fragment)
chain: DFFHRYKHYLTITAAAKTAEAQLKWAGLVESKLRHLVTRLELVDAIALAHPFNKGFDKVYNCSSEEEAQQVASGVTLEVAYESTDHEKLANDTVNEEKADNTESKADGSENGEKQIFPVYTTTCYIGLELEKKKGHPIKRLDISWPTQEFYELCKKWDKYDDTLMNVFIKNTKNTALPDEVFEPGEERPKATKKRSTADTAHSTEQLKRQKVSTA
Q: B1 was tested. Which Kd [2] did it give?
A: 17900 nM

B2: biotinylated Iss1 30-76 (domain or fragment, S. pombe)
chain: VSNAKSPEQASEESDDSDIEFIIETKPGERAEPLGGSIATLGSTRPS
modifications: also: biotin (EZ-Link NHS-PEG4-Biotin), sites not given here
notes: Iss1, S. pombe, residues 30-76; same protein as Dm12, biotinylated for immobilisation on streptavidin biosensors; also called Iss1_(30-76), biotin-labelled; source: E. coli BL21 (DE3) Rosetta2, purified, biotinylated with EZ-Link NHS-PEG4-Biotin; not shown: His-Thioredoxin, N-terminal, cleaved
Q: With B2 as the molecule, how does the koff [3] read?
A: 0.0242 s⁻¹

B3: Red1 residues 288-345 with Val313 mutated to arginine (domain or fragment, S. pombe, UniProt Q9UTR8 288-345, looked up)
chain: ISLPLLKQDDWLSSSKPFGSSTPNVRIEFDSDDDGDDFSNSKIEQSNLEKPPSNSENG
notes: also called V313R; source: E. coli BL21 (DE3), purified; not shown: GB1, N-terminal, cleaved; His6, C-terminal, kept
Q: Which “fold loss in affinity against wild-type Red1_(288-345)” value [4] does the source give for B3 here?
A: ~13 fold

B4: Biotinylated Red1 residues 288-345 (domain or fragment, S. pombe, UniProt Q9UTR8 288-345, looked up)
chain: ISLPLLKQDDWLSSSKPFGSSTPNVVIEFDSDDDGDDFSNSKIEQSNLEKPPSNSENG
modifications: also: biotin (EZ-Link NHS-PEG4-Biotin), site not given here
notes: source: E. coli BL21 (DE3), purified, biotinylated; not shown: GB1, N-terminal, cleaved; His6, C-terminal, kept
Q: With B4 as the molecule, how does the Kd [5] read?
A: 59.2 nM

Q: And the koff [5]?
A: 0.016 s⁻¹

Q: And the kon [5]?
A: 280000 M⁻¹ s⁻¹

B5: biotinylated Red1 288-345 (domain or fragment, S. pombe)
chain: ISLPLLKQDDWLSSSKPFGSSTPNVVIEFDSDDDGDDFSNSKIEQSNLEKPPSNSENG
modifications: also: biotin (EZ-Link NHS-PEG4-Biotin), sites not given here
notes: same protein as Dm2, biotinylated for immobilisation on streptavidin biosensors; source: E. coli BL21 (DE3), purified, biotinylated with EZ-Link NHS-PEG4-Biotin; not shown: GB1, N-terminal, cleaved; His6, C-terminal, kept
Q: Which koff [3] does the source give for B5 here?
A: 0.0163 s⁻¹

Q: And the kon [3]?
A: 275000 M⁻¹ s⁻¹

B6: Red1 288-345 S308A (domain or fragment, S. pombe, UniProt Q9UTR8 288-345, looked up)
chain: ISLPLLKQDDWLSSSKPFGSATPNVVIEFDSDDDGDDFSNSKIEQSNLEKPPSNSENG
notes: also called Red1S308A; source: E. coli BL21 (DE3), purified (His-Trap, TEV cleavage, second IMAC, Superdex 75); not shown: GB1, N-terminal, cleaved; His6, C-terminal, kept
Q: Which results are given for B6?
A: Kd [6]: 1010 nM and 1450 nM; stoichiometry N [6]: 1.04 and 1.05; Kd [7]: 1200 ± 300 nM

B7: Red1 288-345 V313R (domain or fragment, S. pombe, UniProt Q9UTR8 288-345, looked up)
chain: ISLPLLKQDDWLSSSKPFGSSTPNVRIEFDSDDDGDDFSNSKIEQSNLEKPPSNSENG
notes: source: E. coli BL21 (DE3), purified (His-Trap, TEV cleavage, second IMAC, Superdex 75); not shown: GB1, N-terminal, cleaved; His6, C-terminal, kept
Q: With B7 as the molecule, how does the Kd [6] read?
A: 15800 nM and 19900 nM

Q: And the “stoichiometry N” value [6]?
A: 1.13 and 0.96

B8: Red1 288-345 N311A (domain or fragment, S. pombe, UniProt Q9UTR8 288-345, looked up)
chain: ISLPLLKQDDWLSSSKPFGSSTPAVVIEFDSDDDGDDFSNSKIEQSNLEKPPSNSENG
notes: also called Red1N311A; source: E. coli BL21 (DE3), purified (His-Trap, TEV cleavage, second IMAC, Superdex 75); not shown: GB1, N-terminal, cleaved; His6, C-terminal, kept
Q: Which Kd [6] does the source give for B8 here?
A: 770 nM and 1530 nM

Q: What about the “stoichiometry N” value [6] of the same molecule?
A: 0.99 and 1.05

Q: What about the Kd [7] of the same molecule?
A: 1100 ± 250 nM

B9: Full-length Pla1 (Pla1FL, residues 1-566) with non-cleavable N-terminal His6, purified (enzyme)
chain: MTTKQWGITPPISTAPATEQENALNTALINELKNQNLFESPAESEKRVKVLDELQQITTEFVKKVSLAKHMNEKMANEAGGKIFTYGSYRLGVYGPGSDIDTLVVVPKHVSRDNFFQDLEPMLREREEVTDLAAVPDAYVPIIKFKFLGISIDLIFARLSVPRVPRDLELSDNNLLKGVEERCVLSLNGTRVTDQILQLVPNRAVFKHALRAIKFWAQRRAIYANVVGFPGGVAWAMMVARICQLYPNAVSSVIVAKFFRILHQWNWPQPILLKPIEDGPLQVRIWNPKLYPSDKAHRMPIITPAYPSMCATHNITLSTQTIILREMVRAGEIADQIMVKALPWSALFQKHDFFHRYKHYLTITAAAKTAEAQLKWAGLVESKLRHLVTRLELVDAIALAHPFNKGFDKVYNCSSEEEAQQVASGVTLEVAYESTDHEKLANDTVNEEKADNTESKADGSENGEKQIFPVYTTTCYIGLELEKKKGHPIKRLDISWPTQEFYELCKKWDKYDDTLMNVFIKNTKNTALPDEVFEPGEERPKATKKRSTADTAHSTEQLKRQKVSTA
Q: Which results are given for B9?
A: Kd [8]: 115 nM; koff [8]: 0.024 s⁻¹; kon [8]: 210000 M⁻¹ s⁻¹

B10: Red1 288-322 (domain or fragment, S. pombe)
chain: ISLPLLKQDDWLSSSKPFGSSTPNVVIEFDSDDDG
notes: as for B7
Q: Which results are given for B10?
A: Kd [6]: 7300 nM and 8400 nM; stoichiometry N [6]: 1.31 and 1.3

B11: Red1 residues 288-322, purified (domain or fragment, S. pombe, UniProt Q9UTR8 288-322, looked up)
chain: ISLPLLKQDDWLSSSKPFGSSTPNVVIEFDSDDDG
notes: as for B7
Q: B11 was tested. Which Kd [4] did it give?
A: 7900 nM
